Reference: patent US20210395318A1 (Molecular Partners, published 2021)
Each block holds one binder with its values, some of them ahead of it.

How the values were obtained:
Experiment in all cases: cell-based or functional assay
[1] = target: T1, human CD40 on primary human B cells or human monocyte-derived dendritic cells (human, UniProt P25942 21-277)
[2] = target: T1, human CD40 on primary human B cells or …; remark: listed apart in the source
[3] = target: T1, human CD40 on primary human B cells or …; remark: listed apart in the source

T1 sequence (P25942 21-277 H80K/K81H limits assumed): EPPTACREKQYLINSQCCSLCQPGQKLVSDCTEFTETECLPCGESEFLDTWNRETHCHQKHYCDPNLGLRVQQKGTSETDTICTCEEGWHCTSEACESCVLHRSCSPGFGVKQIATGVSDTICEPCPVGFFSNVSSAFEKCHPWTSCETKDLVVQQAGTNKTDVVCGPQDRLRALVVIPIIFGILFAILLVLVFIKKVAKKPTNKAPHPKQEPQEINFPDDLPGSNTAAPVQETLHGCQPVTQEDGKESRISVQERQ

Efficacy [MFI at highest dose], MFI CD86, human B cells with WT-CHO cells (no FAP), w HSA [1]: 310 MFI
Efficacy [MFI at highest dose], MFI CD86, human B cells with WT-CHO cells (no FAP), w/o HSA [1]: 294 MFI
Efficacy at highest dose, % CD86, human B cells with WT-CHO cells (no FAP), w HSA [1]: 13.3%
Efficacy at highest dose, % CD86, human B cells with WT-CHO cells (no FAP), w/o HSA [1]: 13.2%
EC50, % CD86, human B cells with FAP-CHO cells, w HSA [2]: 6.15 nM
EC50, % CD86, human B cells with FAP-CHO cells, w/o HSA [2]: 4.21 nM
EC50, MFI CD86, human B cells with FAP-CHO cells, w HSA [2]: 7.7 nM
EC50, MFI CD86, human B cells with FAP-CHO cells, w/o HSA [2]: 8.46 nM
Efficacy [MFI at highest dose], MFI CD86, human B cells with FAP-CHO cells, w HSA [3]: 2190 MFI
Efficacy [MFI at highest dose], MFI CD86, human B cells with FAP-CHO cells, w/o HSA [3]: 2440 MFI
Efficacy at highest dose, % CD86, human B cells with FAP-CHO cells, w HSA [3]: 47%
Efficacy at highest dose, % CD86, human B cells with FAP-CHO cells, w/o HSA [3]: 48.4%
B1: SMA014 (designed binder)
chain: MRGSHHHHHHGSDLGEKLLVAALYGQDDEVRELLKAGADVNAKDQWGLTPLHKAALQGHLEIVEVLLKAGADVNAKDERGHTPLHWAARFGHLEIVEVLLKAGADVNAQDQKGYTPADLAALWGHEDIAEVLQKAAGSPTPTPTTPTPTPTTPTPTPTGSDLGKKLLQAARAGQLDEVRELLKAGADVNAKDTWGFTPLHIAAESGHLEIVEVLLKAGADVNAKDVQGRTPLHIAAHSGHLEIVEVLLKAGADVNAKDFRGWTPLHLAAWSGHLEIVEILLKAGADVNAQDKSGKTPADLAARAGHQDIAEVLQKAA

Efficacy [MFI at highest dose], MFI CD86, human B cells with WT-CHO cells (no FAP), w HSA [1]: 306 MFI
Efficacy [MFI at highest dose], MFI CD86, human B cells with WT-CHO cells (no FAP), w/o HSA [1]: 299 MFI
Efficacy at highest dose, % CD86, human B cells with WT-CHO cells (no FAP), w HSA [1]: 13.7%
Efficacy at highest dose, % CD86, human B cells with WT-CHO cells (no FAP), w/o HSA [1]: 12.5%
EC50, % CD86, human B cells with FAP-CHO cells, w/o HSA [2]: 89.8 nM
EC50, MFI CD86, human B cells with FAP-CHO cells, w/o HSA [2]: 288 nM
Efficacy [MFI at highest dose], MFI CD86, human B cells with FAP-CHO cells, w HSA [3]: 232 MFI
Efficacy [MFI at highest dose], MFI CD86, human B cells with FAP-CHO cells, w/o HSA [3]: 773 MFI
Efficacy at highest dose, % CD86, human B cells with FAP-CHO cells, w/o HSA [3]: 28.7%
B2: SMA095 (designed binder)
chain: MRGSHHHHHHGSDLGKKLLEAARAGQDDEVRELLKAGADVNAKDYFSHTPLHLAARNGHLKIVEVLLKAGADVNAKDFAGKTPLHLAAADGHLEIVEVLLKAGADVNAQDIFGKTPADIAADAGHEDIAEVLQKAAGSPTPTPTTPTPTPTTPTPTPTGSDLGEKLLVAALYGQDDEVRELLKAGADVNAKDQWGLTPLHKAALQGHLEIVEVLLKAGADVNAKDERGHTPLHWAARFGHLEIVEVLLKAGADVNAQDQKGYTPADLAALWGHEDIAEVLQKAAGSPTPTPTTPTPTPTTPTPTPTGSDLGKKLLQAARAGQLDEVRELLKAGADVNAKDTWGFTPLHIAAESGHLEIVEVLLKAGADVNAKDVQGRTPLHIAAHSGHLEIVEVLLKAGADVNAKDFRGWTPLHLAAWSGHLEIVEILLKAGADVNAQDKSGKTPADLAARAGHQDIAEVLQKAAGSPTPTPTTPTPTPTTPTPTPTGSDLGKKLLEAARAGQDDEVRELLKAGADVNAKDYFSHTPLHLAARNGHLKIVEVLLKAGADVNAKDFAGKTPLHLAAADGHLEIVEVLLKAGADVNAQDIFGKTPADIAADAGHEDIAEVLQKAA
